The RNAGym collection of RNA variant scans (doi:10.1101/gr.219683.116)

B1: mRNA-splicing (parent)
chain: AGUUGCUGCUGGGAGCUCCAGCACAGUGAAAUGGACAGAAGGGCAGAGCAA

Variants of: B1
Assay: exon inclusion enrichment index; higher = more inclusion; WT1 exon 5 minigene, HEK293

Going from AGUUCGCGCCGGGAGCUCCAGCACAGUGAAAUGGACAGAAGUACAGAGCAA [G5C C6G U7C U10C G42U G43A] to AGUUGCCGACGGGAGCUCCAGCACAGUGAAAUGGACAGAAGGGCAGAGCAA [U7C C9A U10C], the “exon inclusion enrichment index” value falls from 4.08 to 3.46.

Compared with AGUUCUUCUCGGGAGCUCCAGCACCAUGAAAUGGACAGAAGGGCAGAGCAA [G5C C6U G8C C9U U10C A25C G26A], AGUUGCUGCUGGGAGCUCCAGCACAGUGAAAUGCGCAGAAGGGCAGAGCAA [G34C A35G] is lower in “exon inclusion enrichment index” value: 3.25 for the first, 0.0695 for the second.

Going from AGUUAUAUAUGGGAGCUCCAGCCCAGUGAAAUGGACAGAAGGGCAGAGCAA [G5A C6U U7A G8U C9A A23C] to AGUUUCUUUUGGGAGCUCCAGCACAGUGACGUGGACAGAAGGGCAGAGCAA [G5U G8U C9U A30C A31G], the “exon inclusion enrichment index” value rises from 0.0335 to 0.406.

Going from AGUUACCACCGGGAGCUCCAGCACAGUGAAACUGACAGAAGGGCAGAGCAA [G5A U7C G8A U10C U32C G33U] to AGUUUCUUUUGGGAGCUCCAGCACAGUGAAAUGCCCAGAAGGGCAGAGCAA [G5U G8U C9U G34C A35C], the “exon inclusion enrichment index” value falls from 1.75 to 0.0104.

Going from AGUUGUGGAAGGGAGCUCCAGCACAGUGAAAUGGACAGAAGGGCAGAGCAA [C6U U7G C9A U10A] to AGUUGACGACGGGAGCUCCAGCACAACGAAAUGGACAGAAGGGCAGAGCAA [C6A U7C C9A U10C G26A U27C], the “exon inclusion enrichment index” value rises from 0.189 to 4.65.

Compared with AGUUCUUCUCGGGAGCUCCAGCACAGUGAAAUGGACCGAAGGGCAGAGCAA [G5C C6U G8C C9U U10C A37C], AGUUUCUUUUGGGAGCUCCAGCACAGUGAAAUGGACAGAAGGUUAGAGCAA [G5U G8U C9U G43U C44U] is lower in “exon inclusion enrichment index” value: 3.08 for the first, 0.0283 for the second.

Going from AGUUAUAUAUGGGAGCUCGAGCACAGUGAAAUGGACAGAAGGGCAGAGCAA [G5A C6U U7A G8U C9A C19G] to AGUUAUAUGGGGGAGCUCCAGCACAGUGAAAUGGACAGAAGGGCAGAGCAA [G5A C6U U7A G8U C9G U10G], the “exon inclusion enrichment index” value falls from 0.0674 to 0.0235.

Going from AGUUAUAUGCGGGAGCUCCAGCACAGUGAAAUGGACAGAAGGGCAGAGCAA [G5A C6U U7A G8U C9G U10C] to AGUUCACACAGGGUGCUCCAGCACAGUGAAAUGGACAGAAGGGCAGAGCAA [G5C C6A U7C G8A U10A A14U], the “exon inclusion enrichment index” value falls from 0.339 to 0.0358.

Going from AGUUCACACAGGGAGCUCCAGCUUAGUGAAAUGGACAGAAGGGCAGAGCAA [G5C C6A U7C G8A U10A A23U C24U] to AGUUGAAGAAGGGAGCUCCAGCACAGUGAAAUGGAUCGAAGGGCAGAGCAA [C6A U7A C9A U10A C36U A37C], the “exon inclusion enrichment index” value rises from 0.00309 to 0.478.

Going from AGUUGCUGCUGGGACGUCCAGCACAGUGAAAUGGACAGAAGGGCAGAGCAA [G15C C16G] to AGUUUCUUUUGGGAGCUAUAGCACAGUGAAAUGGACAGAAGGGCAGAGCAA [G5U G8U C9U C18A C19U], the “exon inclusion enrichment index” value falls from 0.178 to 0.0019.

Compared with AGUUAGGGAUGGGAGCUCCAGCAGGGUGAAAUGGACAGAAGGGCAGAGCAA [G5A C6G U7G C9A C24G A25G], AGUUACCACCGGGAGCUCCAGCACAGUGAAAUGGACAGAAUUGCAGAGCAA [G5A U7C G8A U10C G41U G42U] is higher in “exon inclusion enrichment index” value: 0.00108 for the first, 1.9 for the second.

Going from AGUUCGCGCCGGGAGCUCCAUUACAGUGAAAUGGACAGAAGGGCAGAGCAA [G5C C6G U7C U10C G21U C22U] to AGAGGAAGAAGGGAGCUCCAGCACAGUGAAAUGGACAGAAGGGCAGAGCAA [U3A U4G C6A U7A C9A U10A], the “exon inclusion enrichment index” value falls from 1.36 to 0.245.

Going from AGUUACCACCGGGAGCUCCAGCACAGUGAAAUGGACAGAAGGAGAGAGCAA [G5A U7C G8A U10C G43A C44G] to AGUUCACACAGGGAGGUCCAGCACAGUGAAAUGGACAGAAGGGCAGAGCAA [G5C C6A U7C G8A U10A C16G], the “exon inclusion enrichment index” value falls from 4.11 to 0.043.

Compared with AGUUCACACAGGGAGCUCCUGCACAGUGAAAUGGACAGAAGGGCAGAGCAA [G5C C6A U7C G8A U10A A20U], AGUUGAAGAAGGGAGCUCCAGCACAGUGAAAUGGACAGUGGGGCAGAGCAA [C6A U7A C9A U10A A39U A40G] is lower in “exon inclusion enrichment index” value: 0.199 for the first, 0.0729 for the second.

Compared with AGUGUGCGCCGGGAGCUCCAGCACAGUGAAAUGGACAGAAGGGCAGAGCAA [U4G G5U C6G U7C U10C], AGUUCUUCUCGGGAGCUCCAGCACAGUGAAAUUUACAGAAGGGCAGAGCAA [G5C C6U G8C C9U U10C G33U G34U] is lower in “exon inclusion enrichment index” value: 0.917 for the first, 0.282 for the second.

Going from AGUUCUUCUCGGGAGCUCCAGCAAAGUGAAAUGGACAGAAGGGCAGAGCAA [G5C C6U G8C C9U U10C C24A] to AGUUGCUGCUGGGAGCUCCAGCACAGUGAAAUGGACAGAAGGGCACGGCAA [G46C A47G], the “exon inclusion enrichment index” value falls from 1.72 to 0.339.

First: AUUUCUUCUCGGGAGCUCCAGCACAGUGAAAUGGACAGAAGGGCAGAGCAA [G2U G5C C6U G8C C9U U10C]
Second: AGUUUCUUUUGGGAGCUCCGACACAGUGAAAUGGACAGAAGGGCAGAGCAA [G5U G8U C9U A20G G21A]
The “exon inclusion enrichment index” value of the first is higher: 3.26 for the first, 0.241 for the second.

First: AGUUGCUGGCGGGAGCUCCAGCACAGUGAAAUGGACAGAAGGGCAGAGCAA [C9G U10C]
Second: AGUUCUUCUCGGGAGAUCCAGCACAGUGAAAUGGACAGAAGGGCAGAGCAA [G5C C6U G8C C9U U10C C16A]
The “exon inclusion enrichment index” value of the first is lower: 0.22 for the first, 2.53 for the second.

Compared with AGUUGACGACGGGAGCUCCAGCACAGUGAAAUGGAGCGAAGGGCAGAGCAA [C6A U7C C9A U10C C36G A37C], AGUUGAAGAAGGUGGCUCCAGCACAGUGAAAUGGACAGAAGGGCAGAGCAA [C6A U7A C9A U10A G13U A14G] is lower in “exon inclusion enrichment index” value: 1.56 for the first, 0.553 for the second.

First: AGUUCUUCUCGGGAGCUCCAGCACAGUGAAAUGGAGAGAAGGGCAGAGCAA [G5C C6U G8C C9U U10C C36G]
Second: AGUUCGCGCCGGGAGCUCCAGCACAGUGAAAUGGACAGAAGGGUGGAGCAA [G5C C6G U7C U10C C44U A45G]
The “exon inclusion enrichment index” value of the first is lower: 1.32 for the first, 2.53 for the second.

Going from AGUUCACACAGGGAGCUCCAGCACAGUGAAAUGGACAACAGGGCAGAGCAA [G5C C6A U7C G8A U10A G38A A39C] to AGUUUCUUUUGGGAGCCGCAGCACAGUGAAAUGGACAGAAGGGCAGAGCAA [G5U G8U C9U U17C C18G], the “exon inclusion enrichment index” value rises from 0.107 to 0.151.

First: AGUUGACGUCGGGAGCUCCAGCACAGUGAAAUGGACAGAAGGGCAGAGCAA [C6A U7C C9U U10C]
Second: AGUUGAAGAAGGCGGCUCCAGCACAGUGAAAUGGACAGAAGGGCAGAGCAA [C6A U7A C9A U10A G13C A14G]
The “exon inclusion enrichment index” value of the first is higher: 2.52 for the first, 1.42 for the second.

Compared with AGUUGAAGAAGGGAGCUCCAGCACAGUGAAAUGGACAGACGGGCAGAGCAA [C6A U7A C9A U10A A40C], AGUUGCUGCUGGGAGCUCCAAAACAGUGAAAUGGACAGAAGGGCAGAGCAA [G21A C22A] is lower in “exon inclusion enrichment index” value: 1.8 for the first, 1.17 for the second.

Going from AGUUUCUUUUGGGACGUCCAGCACAGUGAAAUGGACAGAAGGGCAGAGCAA [G5U G8U C9U G15C C16G] to AGUUGACGACGGGAGCUCCAGCACAGUGAAAUGGAUGGAAGGGCAGAGCAA [C6A U7C C9A U10C C36U A37G], the “exon inclusion enrichment index” value rises from 0.179 to 2.91.

First: AGUUUCUUUUGGGAGCUCCAGCACAGUGAAAUGGACAGAGAGGCAGAGCAA [G5U G8U C9U A40G G41A]
Second: AGUUACCACCGGGAGCUCAUGCACAGUGAAAUGGACAGAAGGGCAGAGCAA [G5A U7C G8A U10C C19A A20U]
The “exon inclusion enrichment index” value of the first is lower: 0.0719 for the first, 0.815 for the second.

For AGUUACCACCGGGAGCUCCAGCACAGUGAAAUGGACAUGAGGGCAGAGCAA [G5A U7C G8A U10C G38U A39G], the “exon inclusion enrichment index” value was 1.15.
